According to patent publication US20230242646A1 (JJP BIOLOGICS SP Z O O, published 2023):

Legend:
[1] = molecular target: T1, chimeric human/cynomolgus monkey CD89-hotspots on HEK293F cells (human/cynomolgus chimera, UniProt P24071 22-287); test: FACS, transiently transfected HEK293F
T1 construct: also called dThr58, Gln59; dArg73, Arg74, Lys76
T1 chain: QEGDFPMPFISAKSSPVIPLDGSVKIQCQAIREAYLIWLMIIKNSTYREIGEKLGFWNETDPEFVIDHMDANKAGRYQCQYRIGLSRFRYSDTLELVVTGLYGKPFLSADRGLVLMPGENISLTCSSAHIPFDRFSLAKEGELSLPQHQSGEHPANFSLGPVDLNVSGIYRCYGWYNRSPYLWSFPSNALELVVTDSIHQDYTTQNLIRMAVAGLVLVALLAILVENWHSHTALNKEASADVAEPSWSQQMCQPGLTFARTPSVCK
Description: To this end, transient transfected HEK293F cells were put at 10 × 10⁶ cells/mL in ice-chilled phosphate-buffered saline containing 0.1% BSA (Sigma)/0.05% NaN₃ (PBS/BSA/NaN₃) supplemented with 50 µg/mL human IgGs (blocking FcY receptors; Sigma) for 10 minutes at 4° C. Then, 10 µL/tube (i.e., 0.1 × 10⁶ cells) of these cells were incubated with or without 100 µL purified mouse anti-human CD89 antibody at 10 µg/mL (in PBS/BSA/NaN₃) for 30 minutes at 4° C. […] After extensive washing in PBS/BSA/NaN₃, cells were subsequently incubated with 1:200 diluted PE-conjugated goat anti-mouse IgG Fcy-specific antibodies (Jackson ImmunoResearch) for 30 minutes at 4° C. After extensive washing in PBS/BSA/NaN₃, cells were fixed in 2% formaldehyde in PBS/BSA/NaN₃ for 30 minutes at 4° C.

[2] = molecular target: T2, membrane-bound full-length human CD89 on HEK293F cells (human, UniProt P24071 22-287); test: FACS HEK293F-huCD89, 10 ug/mL; competitor PE-A3
T2 construct: 2 or transient transfectants; also called membrane human CD89; human FcaRI
Description: Then, 10 µL/tube (i.e., 0.1 × 10⁶ cells) of these cells were incubated with or without 100 µL purified mouse anti-human CD89 antibody at 10 µg/mL (in PBS/BSA/NaN₃) for 30 minutes at 4° C. […] After extensive washing in PBS/BSA/NaN₃, cells were fixed in 2% formaldehyde in PBS/BSA/NaN₃ for 30 minutes at 4° C.

[3] = molecular target: T3, membrane full-length cynomolgus monkey CD89 on HEK293F cells (cynomolgus monkey); test: FACS, transiently transfected HEK293F
T3 construct: also called cynoCD89; cynomolgus EC1-CD89
T3 chain: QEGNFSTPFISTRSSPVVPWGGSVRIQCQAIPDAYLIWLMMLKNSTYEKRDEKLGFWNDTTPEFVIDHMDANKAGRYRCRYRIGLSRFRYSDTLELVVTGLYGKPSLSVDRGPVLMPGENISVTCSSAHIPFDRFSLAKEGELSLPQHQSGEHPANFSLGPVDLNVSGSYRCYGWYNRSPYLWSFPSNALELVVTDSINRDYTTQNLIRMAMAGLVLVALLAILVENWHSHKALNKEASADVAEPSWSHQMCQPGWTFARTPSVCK
Description: To this end, transient transfected HEK293F cells were put at 10 x 10⁶ cells/mL in ice-chilled phosphate-buffered saline containing 0.1% BSA (Sigma)/0.05% NaN₃ (PBS/BSA/NaN₃) supplemented with 50 µg/mL human IgGs (blocking FcY receptors; Sigma) for 10 minutes at 4° C. Then, 10 µL/tube (i.e., 0.1 × 10⁶ cells) of these cells were incubated with or without 100 µL purified mouse anti-human CD89 antibody at 10 µg/mL (in PBS/BSA/NaN₃) for 30 minutes at 4° C. […] After extensive washing in PBS/BSA/NaN₃, cells were subsequently incubated with 1:200 diluted PE-conjugated goat anti-mouse IgG Fcy-specific antibodies (Jackson ImmunoResearch) for 30 minutes at 4° C. After extensive washing in PBS/BSA/NaN₃, cells were fixed in 2% formaldehyde in PBS/BSA/NaN₃ for 30 minutes at 4° C.

[4] = molecular target: T2, membrane-bound full-length human CD89 …; test: FACS, antibody before serum IgA on HEK293F-huCD89; IgA detected
Description: Then, 10 µL/tube (i.e., 0.1 x 10⁶ cells) of these cells were incubated with 50 µL titrated (in PBS/BSA/NaN₃) purified mouse anti-human CD89 antibody/tube for 30 minutes at 4° C. […] After extensive washing in PBS/BSA/NaN₃, 1:200 diluted PE-conjugated streptavidin (Jackson ImmunoResearch) was added, and incubated for 30 minutes at 4° C. After extensive washing in PBS/BSA/NaN₃, cells were fixed in 2% formaldehyde in PBS/BSA/NaN₃ for 30 minutes at 4° C.

[5] = molecular target: T2, membrane-bound full-length human CD89 …; test: FACS, antibody before secretory IgA on HEK293F-huCD89; IgA detected

B1: CD89/IgA blocking mouse anti-human CD89-specific antibody 10E7 (antibody, V domains shown)
VH: EVQLVESGGGLVQPGGSLKLSCAASGLTFSSYGMSWVRQTPDKRLELVATINGNGDITYYPDSVKGRFTISRDNAKNTLYLQMSSLKSEDTAMYYCARDYDYDYAMDYWGQGTSVTVSS
VL: DIQMTQSTSSLSASLGDSVTISCRASQDIINYLNWYQQKPDGTVKLLIYYTSRLHSGVPSRFSGSGSGTEYSLTVSNLEKEDIATYFCQQGKTLPYTFGGGTKLEIK
notes: biotinylated in the Octet assay; also called mouse 10E7
B1 was tested, and the binding result [1] was “no binding (tested: 10 µg/mL)”, the “% blocking of PE-A3 binding” value [2] was less than 25% and the binding result [3] was “no binding (tested: 10 µg/mL)”. For the same binder, the “IC50 (read off the curve)” value [4] was roughly 0.7 µg/mL and the “IC50 (read off the curve)” value [5] was roughly 1 µg/mL.
